This test addresses GST-EPAC1 (purified recombinant).

For “RanBP2 zinc finger domain (ZFD), 1171-1809 aa (from UniProt P49792 1171-1809) (domain or fragment)”, the shift of the AC50 of cAMP for EPAC1 GEF activity by RanBP2 ZFD (cAMP titration); maximal GEF activity also reduced came to 10 fold.

Source of the values: paper PMC12226364.
